Assay results from article PMC3218234.

Key:
Assay in all cases: SPR
Conditions in all cases: remark: other sources report otherwise
[1] = molecular target: human IgG1-Fc homodimer glycoform Fc-1 (bisecting-GlcNAc-Man3GlcNAc2) (human)
[2] = molecular target: human IgG1-Fc homodimer glycoform Fc-5 (Man3GlcNAc2) (human)
[3] = molecular target: wild type recombinant human IgG1-Fc homodimer carrying fucosylated complex type N-glycans (CT-Fc) (human)

B1: FcγRIIb, P31994 43-310 (receptor)
chain: TPAAPPKAVLKLEPQWINVLQEDSVTLTCRGTHSPESDSIQWFHNGNLIPTHTQPSYRFKANNNDSGEYTCQTGQTSLSDPVHLTVLSEWLVLQTPHLEFQEGETIVLRCHSWKDKPLVKVTFFQNGKSKKFSRSDPNFSIPQANHSHSGDYHCTGNIGYTLYSSKPVTITVQAP
modifications: not checked
Q: With B1 as the binder, how does the Kd [1] read?
A: 2.2 µM

Q: And the Kd [2]?
A: 2.9 µM

Q: And the Kd [3]?
A: 2.1 µM
